Tests used:
[1] = target: T1, FLAG-Human-Notch2-NRR-6xHis (human, UniProt Q04721 1306-1676); assay: ELISA, lower panel: Flag-tagged NRR protein captured by anti-Flag antibody, titration of α-NRR2, AP-conjugated anti-human secondary antibody, A560
T1 construct: Whole tagged antigen construct; also called NRR2; hNotch2 NRR
T1 sequence: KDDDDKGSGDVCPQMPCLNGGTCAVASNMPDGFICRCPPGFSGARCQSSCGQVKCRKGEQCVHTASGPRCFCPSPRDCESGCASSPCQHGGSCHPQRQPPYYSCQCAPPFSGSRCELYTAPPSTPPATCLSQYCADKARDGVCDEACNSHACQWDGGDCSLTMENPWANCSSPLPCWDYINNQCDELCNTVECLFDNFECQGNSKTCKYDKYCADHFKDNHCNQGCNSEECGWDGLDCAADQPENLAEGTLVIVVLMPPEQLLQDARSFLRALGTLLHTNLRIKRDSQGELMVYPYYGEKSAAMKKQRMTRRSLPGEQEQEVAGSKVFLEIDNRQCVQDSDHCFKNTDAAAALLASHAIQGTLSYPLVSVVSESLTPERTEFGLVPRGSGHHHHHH
Text: (§1) Anti-Flag antibody was used to capture Flag-Tagged NRR protein from all four Notch receptors in a black walled, high binding plate (Greiner). NRR antibody and E25 control antibodies were bound to the NRR proteins and washed away with PBS. An Alkaline Phosphate conjugated anti-human (H+L) secondary antibody (Jackson ImmunoResearch) was used to detect bound anti-NRR and E25. Unbound secondary was washed away and AP was detected with PNPP substrate (Pierce).

[2] = target: T2, Mouse Notch2-NRR-FLAG (mouse, UniProt O35516 1306-1678); assay: SPR (BIAcore-3000), IgG captured by anti-human IgG, Notch2 NRR injected; mouse Notch2 NRR antigen
T2 construct: Whole tagged antigen construct; also called murine Notch2 NRR; mNotch2 NRR
T2 sequence: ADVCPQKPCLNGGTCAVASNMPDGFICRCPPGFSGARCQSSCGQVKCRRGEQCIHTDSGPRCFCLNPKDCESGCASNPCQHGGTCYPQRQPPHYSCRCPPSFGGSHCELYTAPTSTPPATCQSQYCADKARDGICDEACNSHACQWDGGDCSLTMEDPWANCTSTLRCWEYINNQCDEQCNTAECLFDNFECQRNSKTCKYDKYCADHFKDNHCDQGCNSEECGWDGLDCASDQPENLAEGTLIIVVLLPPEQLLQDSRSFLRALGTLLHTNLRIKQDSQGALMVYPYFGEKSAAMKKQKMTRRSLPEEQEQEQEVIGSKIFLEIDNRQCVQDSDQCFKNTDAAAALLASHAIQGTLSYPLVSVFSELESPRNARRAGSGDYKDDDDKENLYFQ
Description: (§2) For kinetics measurements, two-fold serial dilutions of human and mouse Notch2 NRR (3.9 nM to 500 nM) were injected in PBT buffer (PBS with 0.05% Tween 20) at 25° C. with a flow rate of 30 μl/min. Association rates (kₒₙ) and dissociation rates (koff) were calculated using a simple one-to-one Langmuir binding model (BIAcore Evaluation Software version 3.2). The equilibrium dissociation constant (KD) was calculated as the ratio koff/kₒₙ.

[3] = target: T3, mouse Notch3-NRR protein (mouse, UniProt Q61982 1385-1641, limits assumed); assay: ELISA, lower panel: Flag-tagged NRR protein captured by anti-Flag antibody, titration of α-NRR2, A560
T3 construct: domain: NRR; also called mNotch3 NRR
T3 sequence (looked up): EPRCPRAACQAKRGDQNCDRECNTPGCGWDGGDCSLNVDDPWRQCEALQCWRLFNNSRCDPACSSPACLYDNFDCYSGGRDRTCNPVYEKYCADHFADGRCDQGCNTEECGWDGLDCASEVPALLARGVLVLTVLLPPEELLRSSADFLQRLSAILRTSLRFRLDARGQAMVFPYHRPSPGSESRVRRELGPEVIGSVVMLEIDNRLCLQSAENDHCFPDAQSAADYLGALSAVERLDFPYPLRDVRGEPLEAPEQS
Text: as §1

[4] = target: T4, human Notch4-NRR protein (human, UniProt Q99466 1172-1445, limits assumed); assay: as above
T4 construct: domain: NRR; also called hNotch4 NRR
T4 sequence (looked up): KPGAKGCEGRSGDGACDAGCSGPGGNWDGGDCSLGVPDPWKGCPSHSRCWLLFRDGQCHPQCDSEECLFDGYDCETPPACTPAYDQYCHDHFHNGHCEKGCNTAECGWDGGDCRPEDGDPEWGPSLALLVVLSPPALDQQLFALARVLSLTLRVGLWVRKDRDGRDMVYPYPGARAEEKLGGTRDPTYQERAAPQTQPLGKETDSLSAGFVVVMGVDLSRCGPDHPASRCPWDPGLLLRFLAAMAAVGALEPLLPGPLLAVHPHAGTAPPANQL
Text: as §1

[5] = target: T5, mouse Notch1 NRR protein (mouse, UniProt Q01705 1446-1723); assay: as above
T5 construct: Purified NRR fragment (Flag-tagged in the ELISA); also called mNotch1 NRR
T5 sequence: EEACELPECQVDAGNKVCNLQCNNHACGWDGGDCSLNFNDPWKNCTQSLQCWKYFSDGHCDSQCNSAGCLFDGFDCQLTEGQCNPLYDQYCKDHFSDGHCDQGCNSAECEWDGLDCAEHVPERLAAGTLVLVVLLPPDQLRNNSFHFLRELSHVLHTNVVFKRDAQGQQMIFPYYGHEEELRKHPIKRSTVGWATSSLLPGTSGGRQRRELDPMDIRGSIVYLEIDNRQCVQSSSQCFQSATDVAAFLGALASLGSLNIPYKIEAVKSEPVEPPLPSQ
Text: as §1

[6] = target: T6, mouse Notch4-NRR protein (mouse, UniProt P31695 1168-1441, limits assumed); assay: as above
T6 construct: domain: NRR; also called mNotch4 NRR
T6 sequence (looked up): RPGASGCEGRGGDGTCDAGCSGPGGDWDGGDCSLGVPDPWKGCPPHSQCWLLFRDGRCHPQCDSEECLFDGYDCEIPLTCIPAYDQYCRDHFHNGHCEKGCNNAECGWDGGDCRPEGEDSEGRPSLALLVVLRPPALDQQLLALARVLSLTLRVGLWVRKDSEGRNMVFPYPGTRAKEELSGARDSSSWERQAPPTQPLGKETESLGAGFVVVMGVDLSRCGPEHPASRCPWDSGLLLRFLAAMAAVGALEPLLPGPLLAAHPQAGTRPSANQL
Text: as §1

[7] = target: T7, human Notch1 NRR protein (human, UniProt P46531 1446-1733); assay: as above
T7 construct: Purified NRR fragment (Flag-tagged in the ELISA); also called NRR1; hNotch1 NRR
T7 sequence: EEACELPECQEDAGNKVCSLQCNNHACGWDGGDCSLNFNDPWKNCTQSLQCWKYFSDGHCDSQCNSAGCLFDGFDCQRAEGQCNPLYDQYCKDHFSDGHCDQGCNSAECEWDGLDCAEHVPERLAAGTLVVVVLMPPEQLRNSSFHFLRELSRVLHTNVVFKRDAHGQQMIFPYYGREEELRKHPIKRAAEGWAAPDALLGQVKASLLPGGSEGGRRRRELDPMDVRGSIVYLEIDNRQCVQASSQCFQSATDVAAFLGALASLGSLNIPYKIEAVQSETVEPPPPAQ
Text: as §1

[8] = target: T8, human Notch3-NRR protein (human, UniProt Q9UM47 1384-1641, limits assumed); assay: as above
T8 construct: domain: NRR; also called hNotch3 NRR
T8 sequence (looked up): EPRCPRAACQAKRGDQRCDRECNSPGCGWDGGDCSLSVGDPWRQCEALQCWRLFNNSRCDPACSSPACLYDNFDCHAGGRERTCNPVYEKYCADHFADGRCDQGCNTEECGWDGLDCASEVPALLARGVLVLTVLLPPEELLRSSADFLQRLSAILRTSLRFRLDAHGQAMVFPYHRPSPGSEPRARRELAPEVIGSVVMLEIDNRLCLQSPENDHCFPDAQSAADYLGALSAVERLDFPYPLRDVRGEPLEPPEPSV
Text: as §1

[9] = target: T1, FLAG-Human-Notch2-NRR-6xHis; assay: SPR (BIAcore-3000), IgG captured by anti-human IgG, Notch2 NRR injected; human Notch2 NRR antigen
Description: as §2

B1: Antibody D-3 (antibody, V domains shown)
VH: EVQLVESGGGLVQPGGSLRLSCAASGYTFSSYGMSWVRQAPGKGLEWVSYIYPYSGATYYADSVKGRFTISADTSKNTAYLQMNSLRAEDTAVYYCARHSGYYRISSAMDVWGQGTLVTVSA
VL: DIQMTQSPSSLSASVGDRVTITCRASQNIKRFLAWYQQKPGKAPKLLIYGASTRESGVPSRFSGSGSGTDFTLTISSLQPEDFATYYCQQYYRSPHTFGQGTKVEIKR
notes: also called anti-NRR2; α-NRR2
EC50 (read off the curve) [1]: ~0.03 µg/mL | Kd [2]: 5 nM | binding result [3]: no binding (tested: 10 ug/ml) | binding result [4]: no binding (tested: 10 ug/ml) | binding result [5]: no binding (tested: 10 ug/ml) | binding result [6]: no binding (tested: 10 ug/ml) | binding result [7]: no binding (tested: 10 ug/ml) | binding result [8]: no binding (tested: 10 ug/ml) | Kd [9]: 5 nM
